Here are results for one protein from paper PMC9873690, “Structural insights into the elevator-type transport mechanism of a bacterial ZIP metal transporter” (Nature Communications, 2023).

The data set concerns the molecule itself. Put plainly: cross-linking; disulfide cross-linking of variants purified in DDM with 50 µM Cu(II)-(1,10-phenanthroline)3 at 25 °C; non-reducing SDS-PAGE and Western blot with anti-Histag antibody. Background: In western blotting, separated proteins are transferred to a membrane and probed.

B1: BbZIP L138C/M295C variant (natural protein)
chain: MNQPSSLAADLRGAWHAQAQSHPLITLGLAASAAGVVLLLVAGIVNALTGENRVHVGYAVLGGAAGFAATALGALMALGLRAISARTQDAMLGFAAGMMLAASAFSLILPGLDAAGTIVGPGPAAAAVVALGLGLGVCLMLGLDYFTPHEHERTGHQGPEAARVNRVWLFVLTIILHNLPEGMAIGVSFATGDLRIGLPLTSAIAIQDVPEGLAVALALRAVGLPIGRAVLVAVASGLMEPLGALVGVGISSGFALAYPISMGLAAGAMIFVVSHEVIPETHRNGHETTATVGLCAGFALMMFLDTALG
notes: Purified protein was detected with the anti-Histag antibody; in the membrane fraction it was detected with a custom monoclonal antibody against BbZIP; source: E. coli C41 (DE3) pLysS, purified in DDM (1 mM TCEP except in the last size-exclusion step); also in the spheroplast-derived membrane fraction of E. coli cells; not shown: His-tag, N-terminal, kept
Usually stoichiometry N stands for the number of molecules, sites or subunits per partner or assembly. Turning to B1, the “stoichiometry N” value was found to be 2.
